According to the supplement of paper PMC10567573:

B1: EPB41L3 (parent)
chain: KKFLTLGSKFRYSGRTQAQTRRAS
B2: LOXL2 (parent)
chain: RLLRFSSQIHNNGQSDFRPKNGRH

Variants of: B1
Assay: protein stability index of a GFP-peptide fusion (GPS, HEK-293T) (PSI 1-6); higher = more stable
Conditions: c terminus: a fixed tail appended
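Further: lentivirally expressed fusions sorted by FACS into six bins by GFP to DsRed ratio, PSI derived from sequencing read proportions per bin multiplied by bin number.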

Protein stability index: each site, then its substitutions
K2: W 2.31; E 2.47; S 2.74; R 4.02; I 2.54; V 2.23; N 2.85; L 1.57; D 2.44; P 2.84; C 2.6; A 2.14; F 4.04; Q 2.06; Y 2.22; G 2.59; T 2.44; H 2.4
F3: S 3.78; A 3.62; E 3.11; T 3.48; Q 2.95; L 3.22; H 3.82; P 3.6; I 3.32; N 3.59; V 3.07; R 4.15; D 3.81; M 3.56; Y 3.58; C 3.76; K 3.65
K1: R 3.7; H 2.56; A 2.2; W 1.91; V 2.25; I 2.42; C 2.56; P 2.18; N 3.5; D 2.43; G 3.83; Y 2.23; F 2.45; M 4.46; L 1.91; T 2.38; S 2.76
L4: A 2.98; G 3.36; E 2.85; F 2.99; D 3.63; C 3.06; H 3.44

Variants of: B2
Assay: as above
Conditions: c terminus: a fixed tail appended

Protein stability index, by site and new letter:
H10: Q 2.83; S 2.71; N 3.06; W 2.13; P 3.12; T 2.89; R 2.36; V 2.68; Y 1.87
N11: G 2.23; Q 2.46; T 2.7; S 2.54; I 2.39; K 2.29; W 2.51; H 2.8; Y 2.17; D 3.29; V 4.07; E 2.86; A 2.84; M 2.81; L 2.69; F 2.23; C 2.17; P 2.65; R 2.2
H24: C 2.14; R 2.74; A 2.88; I 2.54; N 2.89; W 2.83; L 2.47; Y 2.67; V 2.52; S 3; P 2.95; T 2.76; F 2.38; E 3.12; D 2.86; K 3.5; G 3.2; Q 3.16; M 2.68
Q14: V 2.15; D 2.84; F 1.8; K 2.39; L 2.19; H 2.59; C 2.3; M 2.5; R 2.5; I 2.11; N 2.79; S 3.15; A 2.55; E 3.26; W 2.06; P 2.81; T 3.35; G 2.52; Y 1.91
K20: E 3.45; C 2.35; I 2.17; D 2.91; S 2.78; P 2.47; H 2.6; T 3.01; F 2.22; Y 2.23; V 2.35; W 2.08; L 1.89; A 2.49; R 2.78; G 2.79; Q 2.54; N 2.92; M 1.92
N21: Y 1.77; K 2.85; S 2.33; T 2.37; G 2.49; A 2.82; M 2.27; W 1.52; P 2.4; V 2.41; D 2.93; R 2.62; Q 2.71; I 1.79; L 2.17; E 2.97; F 2.04; H 2.23; C 2.13
N12: Q 2.57; H 2.59; G 3.16; C 2.36; T 2.72; A 2.89; E 2.57; I 2.27; P 3.15; W 2.55; R 2.52; V 2.87; S 3.25; Y 2.39; M 2.36; K 2.65; L 2.15; D 3.69; F 1.74
F17: E 3.67; W 2.32; S 3.15; A 2.95; P 3.45; C 2.8; Q 3.42; G 3.04; M 3.06; T 3.31; D 3.75; I 3.38; H 3.52; K 3.34; R 3.06; L 2.75; V 2.95; N 3.42; Y 2.69
D16: A 2.36; S 2.73; Y 2.06; T 2.29; I 2.17; E 2.72; K 1.94; N 2.27; H 2.35; F 1.97; L 2.7; M 1.77; G 2.12; C 1.73; P 2.11; W 2.37; R 2.23; V 2.15; Q 2.51
G13: M 2.81; A 2.48; H 3.06; D 3.19; L 2.39; P 2.62; I 2.31; V 2.24; R 3.19; Q 3.2; K 2.15; S 2.46; Y 2.09; E 3.31; C 1.97; W 2.56; N 2.94; F 2.25; T 2.74
G22: Y 2.71; T 2.39; W 2.22; P 2.7; N 2.58; L 2.49; R 2.47; K 2.62; V 2.01; H 2.4; C 2.4; E 2.4; I 2.19; Q 2.89; A 2.57; M 2.27; D 2.94; F 2.11; S 3.02
P19: T 2.32; I 2.58; M 2.21; R 2.41; H 2.54; K 2.71; S 2.98; V 2.04; L 2.54; W 2.76; G 2.78; C 2.52; Y 2.37; E 3.29; F 2.13; N 2.84; A 2.67; Q 2.7; D 2.9
S15: E 3.14; M 2.2; A 2.61; H 3.05; Q 2.77; R 2.55; D 3.06; C 2.65; F 2.28; P 3.12; K 2.42; Y 2.83; I 2.72; T 2.8; G 3.29; V 2.44; L 2.36; W 2.44; N 2.36
R18: F 2.6; W 3.03; I 2.61; K 3.23; G 2.33; P 2.83; S 3.05; T 3.29; E 3.27; V 3.04; H 2.45; M 2.67; C 2.42; D 3.29; L 2.31; N 2.87; Q 2.99; Y 2.59; A 3.21
R23: C 1.97; W 1.91; P 2.46; L 2.04; Y 2.61; S 3.14; G 2.71; Q 2.4; M 1.84; N 3.03; T 3.29; A 2.36; V 2.41; H 2.36; K 2.8; F 1.84; D 2.99; E 3.2; I 1.82
